Assay: label from the status in PepcDB records
In the case of “MYDFKKINNLRGIERETLRVTDCGNLATSNHPDGLGHKLTNNSITVDFSENLLELITKPHDSIDKAIGELYQLSAFTLDNMHSDEIILNTSMPLSANDNDIQEADFGSSNSGRMKRVYRKGLSARYGKIMQIISGIHYNFSFDKDLISNIATNKQVSISDIYFDVLNNYFEFMWLLPYLFGASPICAKTSVKNKPDYLSVLDDKFYVGEYATSLRMSDLGYTSPAQKDLAISYDNVKAYVKDLIQATDDTFADYKRIGLYNSQGQRIQLNDGILQIENEYYSAIRPKQIAKRGERPACALYNRGVEYVEVRVLDVDPFEPVGISKDTALFVEVMLMTCLDKDAKKYHKDIIKQAKQNLTAVAIQGRNPQLKLKKLDDDSEILLKDYALELFDEIEAVAKKMPKEYLDAVEIQKRKVLDISQTPSAKIIELARQHGYKKFILDISRRVSQQFRSYELPAAIVAKLKDQAGQSVAAEKELVANDKISLDEYINRYYKSSKGCC”, the protein production was “not failed”. For “MYDHILLASDGTEASTNAESHAISLAAEHGAALHVLYVVDEDVYTAYSGDEYVDESEGPEHGLEETGQETLARIQADAEASGVDATTTLKHGRPAESVIETADEADVDLLVLGTKRRPAEYRSLLGSITDKVLRLSERPAVVVKTEVEE”, the protein production was “failed”. With “MYDLRPRTLTFLEVALPPTTDTTPIFSLLFFSQCSVFKGFSRSTSSAEAGGVLGGSTRVLICSVSSLVKIEDCKVKIFDKLSEKAEKVLEIGIGTGPNMRYYAARNSNVTLYGLDPNPKMKKYARKSATKAGLKPKNFRFKQGVGEAIPLKDNSVDAVVATLVLCSVSDVTQTLKEIKRVLRQGGVFIFLEHVAAKDGSFFKRLQKLLDPLQQRLADGCHLARNTRECILEAGFSGGVEVQTFSMYSFPWMTRPHIYGLAYN” the protein production was “not failed”. In the case of “MYEGEIAIGPVHSTMLEPHRLRLFIEDEIVKDAELTIGVNHRGVERLMEGLPVEKACILCEKICGICSHIHLWSAARVAEIGCNIEVPERANHIRIIVEELERLHSHTLLFGHAFEILGHETMSMRCFMLREPIMQVFFEISGSRVHYSCPIIGGIRPRCNISETQISHIHDKISQYEEGLTKFIERMLNDPMIISRVKDVGVMDRKTAAKFHAVGPTARGSNVKSDMRKWGWVPEYDPYDFDEILFDSGDVFARLAVRFYECLESVKIIRQALDALKDTSDKRIYNPNYELNEFKPINCYTEAQRGEQYYSYGLDDEGLVRQAKIRTPTATNLGAMEDIVKGYHVSDAELIIASCDPCFTCTDRLMVLKEPFKK”, the protein production was “failed”. With “MYEHQTYEAILVRMLARVPETIDKREGSLIYDALAPGAAELAQAYAELVVNNNLSFADTASGEFLTRRAAEFGIKRKVATKAWRRGGFLDSNNALLNIPLGSRYSIGGLNYTAIEQISTGAYVLECETAGTAGNQQFGDLLPIAYVNSLARAELTEVLVPGEDEETDEALLSRYYETVNEPAFGGNMADYRQKVNAINGVGGTKVFPTWAGGGTVKCTIIASDWAKPSPELVNEVQSTMDPEENQGMGLGQAPIGHAVTIAGVDKVTVDVETTLTLAPGVTPGQVQSDVEAILDAYLLEQRKTWAAQTQIIIRMAQIDARMLTVQGVEDVTGTKLNGTEANFLLDEEEIPILGTVIINELEHHHHHH” the protein production was “failed”. For “MYELTEDFKLRKITKYELDGVDEREDLLVIPPSSKAGPCGNGCLFCYLLQNPPEMIYRVARHDTLNDPTLEERIRYARKHYDLWIRVTDTSGNVKFDENRIKSLYEAGLDEIQISVHTTKKDVRIKLMRNRHAGKLIDLLPLVAKHFRTIADIILTPGFNVDDIGEIIEDLDSMGVHEVRLFPVGVTKYNRFEIRPLTKEE”, the protein production was “failed”. In the case of “MYEPPNQFHCLDADVWIEIPNRVIGVTGNCYVGRDYIPKNGKTRYDVKVFVKKIKKEQENPDTLIKDNDLELSKSKSDDIGTLIEKGVNLRNFKKYDEALQIFEKVTELEPSNAQAWHNKGIILGILKKYNEARQAFEKAMEIEPGKNRRDCSSRHLRSARNRTSERNQGSNVEQ”, the protein production was “failed”. With “MYFSATLFNKYYKLLGTNDEGKLNLERTSSLAYFLALDQMQKDEEEPNAVINMYKDSLSRKNFMEKVGEIFVIAKNGSFEYQANILGCINKVEGGGNSMSSKTGKNFLSTQVISASSSPNPVGYPKRPAASFILELGFEIEGHKHGIKKSDSWKNNLMKFIEFRKCGTDTFPLIVFLLRDKQLNNNLDFNNAIREGLGSAYTQAVVDYLIVNAQVPSLVWDDLQNFATAPFTIDELDTELFMQDQPETNNLQPTVQVKEFKEIEIPNDISRNRIVYGAPGTGKSYKLNKDAKEFFPDDDLYIRVTLYPNYSYSQFVGTYKPTPIYKDVEGEFYKSDMVTSIGHGKEPLIDYTFVPGPFLIQLVNALKYPKSNFVIIIEEINRANAAAVFGDVFQLLDRKDDGESEYTITFNADVTNYLRKEGIFDLQIKIPKNLYIWATMNSADQGVTPLDTAFKRRWSFEYMPIDAGEGAVSSLEMELKFLENPILWNKFRKILNQKLKELMVPEDKLIGPFFMKSYELSNPESFKNKLLLYLRDDVLRHNATKFFKHQTFSDIVTAYDQGGNIFRTISKEELVRSE” the protein production was “not failed”. For “MYIIFALLAFSALILVHELGHFIVAKLNGIYVEEFAIGMGPKLFGVKVGETEYNLRILPFGGFVKMLGEEDESDDSGSLNAKTPIQRILVMGAGAFMNYVLALIIFIGLAMSSGFAENKVASVVPNSPAQEIGIEQGDEFLKIDGNKIHTTDDFRMGLALAKGNPVELEIKRGNDVLTKTVQPILNESGMYQVGISYALVEKPTLLQGIKQGFNETRSLVSQSFIALKTIVTGEANLKTDVGGPVTIIKMSGQAAKAGANTLLWFMAFLSVQLAVFNLLPFPALDGGRIFIELIQMIIRKEIPAKYIEAVNTVGFMLLMGLMVLVTIKDIIFPIL”, the protein production was “failed”. In the case of “MYKDEMIQLHQFLVYVLKYLENGYDIKDECEEYFSLNISPHHIHRTKAEHKYAIFVLSSAISEILARKEGNNLPPNVVNGLSELARRSRKEVVKMEARLEAK”, the protein production was “failed”. For “MYKTQKNHIRCDKQTYRLLRQLCHFSKNLYNYALYHIRQHYFKTQEYLRYESVYHLVKESEDYRLLPSQVAQQTLISVIEAFKSFLGLLRAEKEGKVEERVSMPKYLPKDGMYQIVFPKDQFKTEGKKVRLSLGRGFAKEFGVKYLYFDLPATVLGKEIREVRIIPRFNGRWFEIEYVYEDKQQLGIFDLSRYLGVDLGLDNFAAVVDTIGTAFLIEGRFLKSVNRWYNKERARLQSIYSRQGIKCGRKLALVSRKRQHIIDNFLNQAVSLIIKHCLNNQISAVVVGEMKDIKQGIELGVVNNQNFVGIPYDKFKRKLKSKCMYYGIRYVEVDESYTSQRCSRCGHVSKSSRRYRGLYVCKKCGYVVNADINGAINIVAKVAGESVVKQITSSGCVNHPVRIRVA”, the protein production was “failed”. For “MYKYITILGAAGQIAQKLTATLLTYTDMHITLYGRQLKTRIPPEIIDHERVTVIEGSFQNPGKLEQAVTNAEVVFVGAMESGSDMASIVKALSRKNIRRVIGVSMAGLSGEFPVALEKWTFDNLPISYVQGERQARNVLRESNLNYTILRLTWLYNDPEKTDYELIPEGAQFNDAQVSREAVVKAIFDILHAADETPFHRTSIGVGEPGTHYDKPSFH”, the protein production was “not failed”. For “MYLCGSNQSRKETLENKRYNNVEEWANTLSHGAGILLGVIAGYFLLAKAAAGAEPKWAVACVTVYLFGMLSSYVSSTWYHGSRPGKLKELLRKFDHGAIYLHIAGTYTPFTLLVMRHAGGWGWGIFSFVWLSAIVGFILSFKKLKEHSNLETACYIAMGACILVAMKPLMDHLAEMGAGPAFWWLIGGGVSYIIGAVFYSLRKPYMHATFHLFCLGGSIGHIIAIWLIL”, the protein production was “failed”. For “MYLPLLMALVVALSSCSNKMGALSSDYFTTTPQVLEAVGGKVPVTINGKFPEKYFKKNAVVEVTPVLKWEGGQVKGQPAVFQGEKVEGNDQTISYKMGGNYTMKTTFDYVPEMAKSELYLEFNAKVGKKTIAIPAVKIADGVISTSELINNTLSSANPALGDDAFQRIIKEAHNANIMFLIQQANIRSSELKTAKEFNKEVANVNDAENKKISNIEISAYASPDGGVKLNTGLAENREGNTTKLINKDLKKAKIEVPVDAKYTAQDWEGFQELVSKSNIQDKELILRVLSMYQDPEQRETEIKNISSVYKTLADEILPQLRRSRLTLNYEIIGKSDEEIANLAATDPKQLNVEEILYAATLTNDPAKKADIYTKASQQFPNDYRAFNNLGKLAYQAGDLDKAQSYVKKAESIKSAPEVNMNLGLIALAKGDKAAAESYLGKAAGAKELNETLGNLYVAQGQYERAVNAFGDTKTNSAALAQILAKDYNKAKNTLAGIATPDAYTDYLMAVLGARTNNTSMLTSSLKSAVAKNPALAKKAATDLEFAKYYTNADFMSIVK”, the protein production was “failed”.

Source: a protein production outcome set (Wang et al. 2014)
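Further: failed if final PepcDB status was selected cloned or expressed and not failed if soluble or beyond.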
